Assay results: patent US20260070975A1

Molecular target: c-Kit expressed on the cell surface of M-07e cells (human) (UniProt P10721)
Experiment: flow cytometry on M-07e cells

Sequence of c-Kit expressed on the cell surface of M-07e cells (human) (P10721 26-976): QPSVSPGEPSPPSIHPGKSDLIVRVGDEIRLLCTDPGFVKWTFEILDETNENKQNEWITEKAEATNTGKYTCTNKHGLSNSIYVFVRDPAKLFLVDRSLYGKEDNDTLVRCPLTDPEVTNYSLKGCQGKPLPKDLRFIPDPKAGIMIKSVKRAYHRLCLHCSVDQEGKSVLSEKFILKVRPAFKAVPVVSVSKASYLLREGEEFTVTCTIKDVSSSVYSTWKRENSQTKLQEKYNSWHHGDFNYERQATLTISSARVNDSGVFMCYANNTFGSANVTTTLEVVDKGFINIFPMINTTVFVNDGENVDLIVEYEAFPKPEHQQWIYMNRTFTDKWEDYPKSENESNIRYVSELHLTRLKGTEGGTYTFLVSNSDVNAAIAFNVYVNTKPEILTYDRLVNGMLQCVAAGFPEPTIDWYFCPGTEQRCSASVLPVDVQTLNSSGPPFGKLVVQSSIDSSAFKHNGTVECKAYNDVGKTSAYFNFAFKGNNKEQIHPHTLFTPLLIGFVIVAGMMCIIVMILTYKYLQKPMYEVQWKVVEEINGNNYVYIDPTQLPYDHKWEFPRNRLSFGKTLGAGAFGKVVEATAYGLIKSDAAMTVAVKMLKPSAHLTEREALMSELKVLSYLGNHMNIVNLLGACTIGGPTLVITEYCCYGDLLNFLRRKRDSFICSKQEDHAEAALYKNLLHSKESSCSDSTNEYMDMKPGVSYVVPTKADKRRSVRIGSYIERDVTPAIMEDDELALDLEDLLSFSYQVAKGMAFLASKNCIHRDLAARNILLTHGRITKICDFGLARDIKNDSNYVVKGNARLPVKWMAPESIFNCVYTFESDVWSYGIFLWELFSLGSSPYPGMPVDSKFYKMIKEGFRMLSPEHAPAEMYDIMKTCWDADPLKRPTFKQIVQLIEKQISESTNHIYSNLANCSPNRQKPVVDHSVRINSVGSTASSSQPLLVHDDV

Measuring Fluorescent Intensity (MFI): 85 MFI | Percent Positive for c-Kit on M-07e cells: 2.3%
Substance: hIgG1 control (antibody)
